Measured values as given in the supplement of paper PMC12764529.
± gives the half width of the 95% confidence interval.

Columns and labels:
[1] = folding stability dG unfold (combined trypsin and chymotrypsin); higher = more stable
Method in brief: (§1)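 Mini-proteins designed to be under 80 residues and free of cysteine were carried in a PA-tagged cDNA display construct and digested with trypsin and with chymotrypsin. Each protease was applied at 11 threefold-diluted concentrations, alongside a no-protease condition, before sequencing. K50 came from Bayesian fitting of the sequencing counts, and unfolding free energy was obtained by comparing it with a sequence-predicted unfolded-state K50 and a shared folded-state K50, for each protease separately or for both together. Designs were retained only if their AlphaFold2 dimer inter-PAE exceeded 15.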

[2] = folding stability dG unfold from trypsin proteolysis; higher = more stable
Method in brief: as §1

[3] = folding stability dG unfold from chymotrypsin proteolysis; higher = more stable
Method in brief: as §1

Row | Sequence | folding stability dG unfold [1] | folding stability dG unfold [2] | folding stability dG unfold [3]
1 | SFIRKDPDGTYVIMGRMPPNMPIEEFLENLPGFKIKDVEYQPDPENGYWYFTLVITPRGKVKIDWVPMGDSA [r9_238_TrROS] | 2 ± 0.11 kcal/mol | 2 ± 0.03 kcal/mol | 1.91 ± 0.11 kcal/mol
2 | SFNISVSVEPDDDKYKVTIWIQVDPEEFPGQPPTPSVIEEIARELARDWGIKEVEIEPPPNGYYRHTFPLSA [r9_883_TrROS] | 1.88 ± 0.1 kcal/mol | 1.33 ± 0.032 kcal/mol | 2.25 ± 0.057 kcal/mol
3 | SFTPEQVKDIAKTIANRMYDNGYEVEVDVEVEPVNNMPYVEIEFEWRDPDGQPWKFEIIIHPDGDIEIYPSA [r9_1027_TrROS] | 2.43 ± 0.21 kcal/mol | 1.28 ± 0.16 kcal/mol | 2.7 ± 0.065 kcal/mol
4 | SFTVERNVYRIENPPKLVVNVIITAEDGTPVPPEVVEEAVRELEKAGFPVKKVSVTPLPDGSVLVTVEVDVS [r1_408_TrMRF] | 2.52 ± 0.083 kcal/mol | 2.84 ± 0.1 kcal/mol | 2.13 ± 0.071 kcal/mol
5 | SGATLFIGRFPGEGTLIAVAKLPNGKEIVISFGNYPEGIAGIAALARELDPRAEIKHIELVPPDSVPPEFSA [r9_137_TrMRF] | 1.45 ± 0.11 kcal/mol | 1.37 ± 0.038 kcal/mol | 1.49 ± 0.11 kcal/mol
6 | SGATVTVSKDGRTYTVTVSPNATVTVEVRDPTSTSTYTQTVPPGQPTTVSLPLPSDVSSSVTIASIDVGASA [r9_1152_JUSTAS] | 0.592 ± 0.072 kcal/mol | 0.439 ± 0.025 kcal/mol | 0.656 ± 0.088 kcal/mol
7 | SGFKVYIPDADLDAAVAVAKALVEKGYDTLLVDSPEVLKAIKEAIPDVKVEPVPVLPPVPPLPGEAEALFSA [r9_639_TrMRF] | 0.684 ± 0.076 kcal/mol | 0.71 ± 0.021 kcal/mol | 0.573 ± 0.092 kcal/mol
8 | SGFTFSTLIAPDESLSITVKEPNSSTTTSFDFTVDPATGAVSATATTTPPDGKTQTFSVTIPVSPGAAALSA [r9_770_JUSTAS] | 0.973 ± 0.11 kcal/mol | 1.02 ± 0.08 kcal/mol | 0.924 ± 0.18 kcal/mol
9 | SGKDTLILELVLEVDSEEQAQAIRDIFEALGYKVEVRVFPLPDGLIVFVRVEVPVPPPPPSLEDPELLAKSA [r9_863_TrMRF] | 2.57 ± 0.15 kcal/mol | 1.92 ± 0.092 kcal/mol | 2.75 ± 0.028 kcal/mol
10 | SGKKKIKIYVESIEVFEDGVVKIKVKAIFPDGSEEDVIAEIRVEPDEDGRPHLLVVIRIGDKDFLLVLDASA [r9_271_TrMRF] | 2.96 ± 0.17 kcal/mol | 2.81 ± 0.11 kcal/mol | 3.15 ± 0.059 kcal/mol
11 | SGLKPNEVKKFTFSFPVTDPVTGKEVTATVELYVSAGNPFVVVKLTVTPPDGKTETKTFVVPPGATLTIDSA [r9_88_TrMRF] | 3.2 ± 0.17 kcal/mol | 1.73 ± 0.054 kcal/mol | 3.598 ± 0.028 kcal/mol
12 | SGLPEELARKLGLSAMTPLPDGTLVMALPDGTRVVVRIETTEVRLSPLGEPAVEVEVEVERLPAPAPEAASA [r9_648_JUSTAS] | 1.6 ± 0.048 kcal/mol | 1.5 ± 0.027 kcal/mol | 1.67 ± 0.018 kcal/mol
13 | SGLTLTLPVAPDEELKLTLKLPNTDETVEVEAETVAETGDVFAVAVATPPNGDKKVVPAVIKVEPGEPDESA [r9_770_TrMRF] | 0.642 ± 0.12 kcal/mol | 0.704 ± 0.038 kcal/mol | 0.332 ± 0.16 kcal/mol
14 | SGLTNLRVEAELVPPGVLRVTFTEGGKPVYELTFTVVVPAPPVVEPVLLPNGVPALVVYDPATGKPVVYPSA [r9_343_TrMRF] | 2.86 ± 0.08 kcal/mol | 2.17 ± 0.13 kcal/mol | 3.27 ± 0.11 kcal/mol
15 | SGMDTVTPTTSTTQYFVEPNPEPVLSISTTTDTTTDPANPGVVTVTTTTTITDPRTGTTTTTPTTTTVPASA [r9_342_JUSTAS] | -0.146 ± 0.18 kcal/mol | 0.142 ± 0.019 kcal/mol | -0.564 ± 0.14 kcal/mol
16 | SGMERTPLTPTETVTLTIPPGSLTITPTASPGPLTVTVTVPGSGTPTVVELPVEAPDLDAALAAVVAALQSA [r9_982_JUSTAS] | 1.12 ± 0.056 kcal/mol | 0.787 ± 0.04 kcal/mol | 1.39 ± 0.078 kcal/mol
17 | SGMIKVSVEEKELKDGTKLYTITVEHPDPEVAKETAEKIVKEKFPKNYKVETKLTESGKVIAPVIVPKKKSA [r9_646_JUSTAS] | 0.9 ± 0.2 kcal/mol | 0.379 ± 0.09 kcal/mol | 1.1 ± 0.15 kcal/mol
18 | SGMKSVTTPVSLTINTSPEEAEEFIEKLAKERGIEDVTVVKVTTDPATGTLTVEAELHTTIPPLPPPSSVSA [r9_918_JUSTAS] | 1.1 ± 0.27 kcal/mol | 1.07 ± 0.044 kcal/mol | 1.17 ± 0.061 kcal/mol
19 | SGMPTVTLNVTIEFERERLSFDPKTGKPRLELVKVTKPVTITGFFTSPEEAAAAAEAVRKALEADPEALASA [r9_77_JUSTAS] | 2.07 ± 0.084 kcal/mol | 1.7 ± 0.068 kcal/mol | 2.37 ± 0.034 kcal/mol
20 | SGMTIKILEVDFNPLGEEDEKATITLKAEIGGEEVELKIEVYRRPDGSAIAKITLILPGSGEPFEITADISA [r9_241_TrMRF] | 3.91 ± 0.17 kcal/mol | 2.61 ± 0.11 kcal/mol | 4.16 ± 0.13 kcal/mol
21 | SGMTVTPVTHPNGQTLTLTFDPETGTVTVNRSPAISLEEVKAALEALIPSDRSVTVSTLPDGTAAVTLTASA [r9_933_JUSTAS] | 1.27 ± 0.059 kcal/mol | 1.36 ± 0.04 kcal/mol | 1.06 ± 0.1 kcal/mol

Row | Sequence | folding stability dG unfold [1] | folding stability dG unfold [2] | folding stability dG unfold [3]
22 | SGPAEGFEAELVEEYTLPETERVFVYRVTHPDGTEYVLVVVRNPDGTWEPVFVYRPDDPDALREALELLGSA [r9_1069_TrMRF] | 3.47 ± 0.057 kcal/mol | 3.11 ± 0.081 kcal/mol | 3.595 ± 0.022 kcal/mol
23 | SGPIAELVKAHPGVPVEDLAKAIVDALKAQLPKDVPITVDAEVTPDGIKLNVTVEGDTEPFTFPFVVKPGSA [r9_805_TrMRF] | 1.2 ± 0.043 kcal/mol | 0.879 ± 0.024 kcal/mol | 1.34 ± 0.038 kcal/mol
24 | SGREEEIAEELREKLLAEGYTEVEVEIEVRPDPNSDNVLVTVTVRATKKDAEGNWKTYEETIPVLIPAEASA [r9_440_JUSTAS] | 3.11 ± 0.25 kcal/mol | 3.12 ± 0.26 kcal/mol | 3.23 ± 0.15 kcal/mol
25 | SGSMTLVSESTVPEKGTTLLTLKFPNGAPATVTLNPDGSSTTTFPATGLPFTVTVGSGTLTVTTPAALALSA [r9_233_JUSTAS] | 1.23 ± 0.18 kcal/mol | 1.01 ± 0.1 kcal/mol | 1.42 ± 0.12 kcal/mol
26 | SGSSYLPLEDVKTEWKKNPNSDVYNYTTFLQTPSGEPISVTYDPKTGKITFNLPPGTTWRPGKKSEVKLESA [r9_509_JUSTAS] | 0.864 ± 0.16 kcal/mol | 0.124 ± 0.16 kcal/mol | 1.13 ± 0.23 kcal/mol
27 | SGVEYIEIPLEVTLDAPLEKAFEFLEDLAEEFGLGDIEVLEVEVDPETGKVRVKALARIAIAPPPPPSLESA [r9_918_TrMRF] | 3.19 ± 0.17 kcal/mol | 2.83 ± 0.044 kcal/mol | 3.53 ± 0.11 kcal/mol
28 | SGVLVVTHPDGSVSTVPFTHPDGLVVDISAGVDAPLYATVVRLLPDGTPEPLPVFEFDSIEDVLEALAEASA [r9_942_TrMRF] | 1.61 ± 0.023 kcal/mol | 0.545 ± 0.016 kcal/mol | 1.983 ± 0.014 kcal/mol
29 | SHPDEFPKELVDAIAKAFPNIKRIEVEPLPDKFVLLKVEFIDGDGEGRVAFAVPTPDGETALHEYLVRNPSA [r9_678_TrMRF] | 1.14 ± 0.056 kcal/mol | 1 ± 0.013 kcal/mol | 1.23 ± 0.062 kcal/mol
30 | SHWVRKELQEKGYPVKDIEMNPPQGYFYITIQRKRPRKGKPKKKEITIPMDPNMTPDNMLWMARNALDAYSA [r9_184_TrROS] | 0.804 ± 0.1 kcal/mol | 1.05 ± 0.14 kcal/mol | 0.594 ± 0.14 kcal/mol
31 | SIEFKEGQWFPIREIDNNHIEWKHNNEPYKIPPDEIDEPGDWIRITNGRIPEIRPPPPPPVDPEDAKKKKSA [r9_842_TrROS] | 3.51 ± 0.33 kcal/mol | 2.6 ± 0.32 kcal/mol | 4.12 ± 0.32 kcal/mol
32 | SIINALREALKDGKPGQEIPIMMPPDGMGELMNWLQDYGFKPKKMEPMPMNNRPMYTHEFTIDPKNGKFRSA [r9_498_TrROS] | 0.0967 ± 0.29 kcal/mol | -0.0613 ± 0.39 kcal/mol | 0.26 ± 0.26 kcal/mol
33 | SIKELAKELPGFQVSVEPDDPGQVKITIMVPDDPQQQKRFQNKIIELANDIQGEHGMPVTIEIQPVPPGDSA [r9_1099_TrROS] | -0.00283 ± 0.081 kcal/mol | -0.238 ± 0.056 kcal/mol | 0.0536 ± 0.096 kcal/mol
34 | SIKLSNGETIEYEPSPNKTYTIKHPDGRVVKILKVEREKDKYTVEIQFDDGSTKTIEIPPDKPEIIEKELLS [r1_66_JUSTAS] | 1.24 ± 0.12 kcal/mol | 1.37 ± 0.027 kcal/mol | 0.951 ± 0.08 kcal/mol
35 | SIRGMPPEVVLYIIRFFAREQKNKGMPPDDRPIEINIMMPNPEARKDAKKEIKEENPGIKDVKIEVMPPNSA [r9_341_TrROS] | 2.61 ± 0.56 kcal/mol | 2.2 ± 0.11 kcal/mol | 3.1 ± 0.17 kcal/mol
36 | SITIMVDNLPPGATAEELASTLFNWIQQFGWEVTPIKITPMPDNWVTVEIEFKNNGKPIFRETIEFRPDASA [r9_953_TrROS] | 3.26 ± 0.09 kcal/mol | 2.4 ± 0.092 kcal/mol | 3.56 ± 0.06 kcal/mol
37 | SIVIRLPDGKPLMIQLTMYYPPDNDKIEIPVEIYDGGKPRTFEHEIPPGDNKPVTFSLHIPLPPGAYIKISA [r9_973_TrROS] | 2.38 ± 0.23 kcal/mol | 2.17 ± 0.12 kcal/mol | 2.45 ± 0.14 kcal/mol
38 | SIWFSPGKKYKIDEIRFGGWEIEKFTAQVGPDGNIQIPMDIKPVKKPPPPPPVVRNPEDGKYYDPGDPKDSA [r9_603_TrROS] | 1.04 ± 0.78 kcal/mol | -0.127 ± 0.39 kcal/mol | 1.64 ± 0.25 kcal/mol
39 | SIYIMLPVPPGKPYKLSIEIEMPDNGRPYEYDGTFNPENGWVMFPVRFPDNGHPIPPEDFKVKVELEPPKSA [r9_928_TrROS] | 2.07 ± 0.23 kcal/mol | 1.42 ± 0.072 kcal/mol | 2.45 ± 0.14 kcal/mol
40 | SKDPNNEWVVIKFEVTIPVPPGQKPITADEIASQVRQIMQNHGMEITSVEVEYRGNQVTVSVEIVIPKKASA [r9_1134_TrROS] | 3.22 ± 0.18 kcal/mol | 3.23 ± 0.19 kcal/mol | 3.32 ± 0.11 kcal/mol
41 | SKEEEEEIEIEIVVPNLTEEEIKELAKELLEKKGYEVEEIEITEEELEELKNKKPGDEVVIKIKIKVKKKSA [r9_1163_TrROS_Hall] | 2.51 ± 0.2 kcal/mol | 2.51 ± 0.19 kcal/mol | 2.27 ± 0.073 kcal/mol
42 | SKEVKITIEVKEVNGKLYVVVKVEVNGKEETLVFKSLEEAKNAIAKKLGLPKEKIKIKKVEVYKVSKKDLSA [r9_909_TrROS_Hall] | 1.07 ± 0.24 kcal/mol | 0.964 ± 0.16 kcal/mol | 0.869 ± 0.21 kcal/mol
